Sequences and labels used below:
B1: β-conglycinin β subunit mutant 39335-17 (other)
chain: MDYKDDDDKLKVREDENNPFYLRSSNSFQTLFENQNGRIRLIQRFNKRSPQLENLRDYRIVQIQSKPNTIILPHHADADFIIIILSGRAILTLVNNDDRDSYNIHPGDAIRIPAGTTYYIINPHDHQNLKIIKIAIPVNKPGRYDDFFLSSTQAQQSYLQGFSHNILETSFHSEFEEINRVLLGEEEEQRQQEGVIVELSKEQIRQLSRRAKSSSRKTISSEDEPFNLRSRNPIYSNNFGKIFEITPEKTPQLRDLDIFISSVDINEGALILPHFNSKAIVILVINEGDANIEIVGIKEQQQKQKQEEEPLEVQRYRAELSEDDIIVIPAAYPFVVNATSNLNIIAIGINAENNQRNFLAGEKDNVVRQIERQVQELAFPGSAQDVERLLKKQRESYFVDAQPQQKEEGSKGRKGPFPSILGALY
B2: β-conglycinin β subunit mutant 39335-22 (other)
chain: MDYKDDDDKLKVREDENNPFYLRSSNSFQTLFENQNGRIRLIQRFNKRSPQLENLRDYRIVQIQSKPNTIILPHHADADFIIIILSGRAIITIVNNDDRDSYNIHPGDAIRIPAGTTYYIINPHDHQNLKIIKIAIPVNKPGRYDDFFLSSTQAQQSYLQGFSHNILETSFHSEFEEINRVLLGEEEEQRQQEGVIVELSKEQIRQLSRRAKSSSRKTISSEDEPFNLRSRNPIYSNNFGKIFEITPEKTPQLRDLDIFISSVDINEGALILPHFNSKAIVILVINEGDANIEIVGIKEQQQKQKQEEEPLEVQRYRAELSEDDIIVIPAAYPFVINATSNLNFLAFGINAENNQRNFLAGEKDNVVRQIERQVQELAFPGSAQDVERLLKKQRESYFVDAQPQQKEEGSKGRKGPFPSILGALY
B3: β-conglycinin β subunit mutant 39335-26 (other)
chain: MDYKDDDDKLKVREDENNPFYLRSSNSFQTLFENQNGRIRLIQRFNKRSPQLENLRDYRIVQFQSKPNTIILPHHADADFIIIILSGRAILTLVNNDDRDSYNIHPGDAQRIPAGTTYYIINPHDHQNLKIIKIAIPVNKPGRYDDFFLSSTQAQQSYLQGFSHNILETSFHSEFEEINRVLLGEEEEQRQQEGVIVELSKEQIRQLSRRAKSSSRKTISSEDEPFNLRSRNPIYSNNFGKFFEITPEKTPQLRDLDIFLSSVDINEGALLLPHFNSKAIVILVINEGDANIELVGIKEQQQKQKQEEEPLEVQRYRAELSEDDIIVIPAAYPFVVNATSNLNIIAIGINAENNQRNFLAGEKDNVVRQIERQVQELAFPGSAQDVERLLKKQRESYFVDAQPQQKEEGSKGRKGPFPSILGALY
B4: β-conglycinin β subunit mutant 39335-27 (other)
chain: MDYKDDDDKLKVREDENNPFYLRSSNSFQTLFENQNGRIRLIQRFNKRSPQLENLRDYRIVQIQSKPNTIILPHHADADFIIIILSGRAIITLVNNDDRDSYNIHPGDAIRIPAGTTYYIINPHDHQNLKIIKIAIPVNKPGRYDDFFLSSTQAQQSYLQGFSHNILETSFHSEFEEINRVLLGEEEEQRQQEGVIVELSKEQIRQLSRRAKSSSRKTISSEDEPFNLRSRNPIYSNNFGKIFEITPEKTPQLRDLDIFISSVDINEGALILPHFNSKAIVILVINEGDANIEIVGIKEQQQKQKQEEEPLEVQRYRAELSEDDIIVIPAAYPFVINATSNLNFLAFGINAENNQRNFLAGEKDNVVRQIERQVQELAFPGSAQDVERLLKKQRESYFVDAQPQQKEEGSKGRKGPFPSILGALY
B5: β-conglycinin β subunit mutant 39335-28 (other)
chain: MDYKDDDDKLKVREDENNPFYLRSSNSFQTLFENQNGRIRLIQRFNKRSPQLENLRDYRIVQFQSKPNTIILPHHADADFIIIILSGRAIITLVNNDDRDSYNIHPGDAIRIPAGTTYYIINPHDHQNLKIIKIAIPVNKPGRYDDFFLSSTQAQQSYLQGFSHNILETSFHSEFEEINRVLLGEEEEQRQQEGVIVELSKEQIRQLSRRAKSSSRKTISSEDEPFNLRSRNPIYSNNFGKIFEITPEKTPQLRDLDIFISSVDINEGALILPHFNSKAIVILVINEGDANIEIVGIKEQQQKQKQEEEPLEVQRYRAELSEDDVFVIPAAYPFVVNATSNLNIIAIGINAENNQRNFLAGEKDNVVRQIERQVQELAFPGSAQDVERLLKKQRESYFVDAQPQQKEEGSKGRKGPFPSILGALY
B6: β-conglycinin β subunit mutant 39335-19 (other)
chain: MDYKDDDDKLKVREDENNPFYLRSSNSFQTLFENQNGRIRLIQRFNKRSPQLENLRDYRIVQIQSKPNTIILPHHADADFIIIILSGRAIITLVNNDDRDSYNIHPGDAIRIPAGTTYYIINPHDHQNLKIIKIAIPVNKPGRYDDFFLSSTQAQQSYLQGFSHNILETSFHSEFEEINRVLLGEEEEQRQQEGVIVELSKEQIRQLSRRAKSSSRKTISSEDEPFNLRSRNPIYSNNFGKIFEITPEKTPQLRDLDIFISSVDINEGALILPHFNSKAIVILVINEGDANIEIVGIKEQQQKQKQEEEPLEVQRYRAELSEDDIIVIPAAYPFVVNATSNLNIIAIGINAENNQRNFLAGEKDNVVRQIERQVQELAFPGSAQDVERLLKKQRESYFVDAQPQQKEEGSKGRKGPFPSILGALY
B7: β-conglycinin β subunit mutant 39335-10 (other)
chain: MDYKDDDDKLKVREDENNPFYLRSSNSFQTLFENQNGRIRLIQRFNKRSPQLENLRDYIIVQFQSKPNTILLPHHADADFIIIILSGRAILTLVNNDDRDSYNLHPGIAQRIPAGTTYYIINPHDHQNLKIIKIAIPVNKPGRYDDFFLSSTQAQQSYLQGFSHNILETSFHSEFEEINRVLLGEEEEQRQQEGVIVELSKEQIRQLSRRAKSSSRKTISSEDEPFNLRSRNPIYSNNFGKIFEITPEKTPQLRDLDIFLSSVDINEGALLLPHFNSKAIVILVINEGDANIEIVGIKEQQQKQKQEEEPLEVQRYRAELSEDDVFVIPAAYPFVVNATSNLNFLAFGINAENNQRNFLAGEKDNVVRQIERQVQELAFPGSAQDVERLLKKQRESYIVDAQPQQKEEGSKGRKGPFPSILGALY
B8: β-conglycinin β subunit mutant 39335-13 (other)
chain: MDYKDDDDKLKVREDENNPFYLRSSNSFQTLFENQNGRIRLIQRFNKRSPQLENLRDYRIVQFQSKPNTIILPHHADADFIIIILSGRAILTLVNNDDRDSYNIHPGDAQRIPAGTTYYLVNPHDHQNLKIIKIAIPVNKPGRYDDFFLSSTQAQQSYLQGFSHNILETSFHSEFEEINRVLLGEEEEQRQQEGVIVELSKEQIRQLSRRAKSSSRKTISSEDEPFNLRSRNPIYSNNFGKIFEITPEKTPQLRDLDIFLSSVDINEGALLLPHFNSKAIVILVINEGDANIELVGIKEQQQKQKQEEEPLEVQRYRAELSEDDVFVIPAAYPFVVNATSNLNFLAFGINAENNQRNFLAGEKDNVVRQIERQVQELAFPGSAQDVERLLKKQRESYFVDAQPQQKEEGSKGRKGPFPSILGALY
B9: β-conglycinin β subunit mutant 39335-29 (other)
chain: MDYKDDDDKLKVREDENNPFYLRSSNSFQTLFENQNGRIRLIQRFNKRSPQLENLRDYRIVQFQSKPNTIILPHHADADFIIIILSGRAILTLVNNDDRDSYNIHPGDAQRIPAGTTYYIINPHDHQNLKIIKIAIPVNKPGRYDDFFLSSTQAQQSYLQGFSHNILETSFHSEFEEINRVLLGEEEEQRQQEGVIVELSKEQIRQLSRRAKSSSRKTISSEDEPFNLRSRNPIYSNNFGKIFEITPEKTPQLRDLDIFISSVDINEGALILPHFNSKAIVILVINEGDANIEIVGIKEQQQKQKQEEEPLEVQRYRAELSEDDVFVIPAAYPFVVNATSNLNIIAIGINAENNQRNFLAGEKDNVVRQIERQVQELAFPGSAQDVERLLKKQRESYFVDAQPQQKEEGSKGRKGPFPSILGALY
B10: β-conglycinin β subunit mutant 39335-21 (other)
chain: MDYKDDDDKLKVREDENNPFYLRSSNSFQTLFENQNGRIRLIQRFNKRSPQLENLRDYRIVQIQSKPNTIILPHHADADFIIIILSGRAILTLVNNDDRDSYNIHPGDAQRIPAGTTYYIINPHDHQNLKIIKIAIPVNKPGRYDDFFLSSTQAQQSYLQGFSHNILETSFHSEFEEINRVLLGEEEEQRQQEGVIVELSKEQIRQLSRRAKSSSRKTISSEDEPFNLRSRNPIYSNNFGKFFEITPEKTPQLRDLDIFLSSVDINEGALILPHFNSKAIVILVINEGDANIEIVGIKEQQQKQKQEEEPLEVQRYRAELSEDDVFVIPAAYPFVINATSNLNFLAFGINAENNQRNFLAGEKDNVVRQIERQVQELAFPGSAQDVERLLKKQRESYFVDAQPQQKEEGSKGRKGPFPSILGALY
B11: β-conglycinin β subunit mutant 39335-25 (other)
chain: MDYKDDDDKLKVREDENNPFYLRSSNSFQTLFENQNGRIRLIQRFNKRSPQLENLRDYRIVQFQSKPNTIILPHHADADFIIIILSGRAIITLVNNDDRDSYNIHPGDAIRIPAGTTYYIINPHDHQNLKIIKIAIPVNKPGRYDDFFLSSTQAQQSYLQGFSHNILETSFHSEFEEINRVLLGEEEEQRQQEGVIVELSKEQIRQLSRRAKSSSRKTISSEDEPFNLRSRNPIYSNNFGKIFEITPEKTPQLRDLDIFISSVDINEGALILPHFNSKAIVILVINEGDANIEIVGIKEQQQKQKQEEEPLEVQRYRAELSEDDVFVIPAAYPFVVNATSNLNFLAFGINAENNQRNFLAGEKDNVVRQIERQVQELAFPGSAQDVERLLKKQRESYFVDAQPQQKEEGSKGRKGPFPSILGALY
B12: β-conglycinin β subunit mutant 39335-12 (other)
chain: MDYKDDDDKLKVREDENNPFYLRSSNSFQTLFENQNGRIRLIQRFNKRSPQLENLRDYIIVQFQSKPNTIILPHHADADFIIIILSGRAILTLVNNDDRDSYNLHPGDAQRIPAGTTYYIINPHDHQNLKIIKIAIPVNKPGRYDDFFLSSTQAQQSYLQGFSHNILETSFHSEFEEINRVLLGEEEEQRQQEGVIVELSKEQIRQLSRRAKSSSRKTISSEDEPFNLRSRNPIYSNNFGKIFEITPEKTPQLRDLDIFLSSVDINEGALLLPHFNSKAIVILVINEGDANIEIVGIKEQQQKQKQEEEPLEVQRYRAELSEDDVFVIPAAYPFVVNATSNLNFLAFGINAENNQRNFLAGEKDNVVRQIERQVQELAFPGSAQDVERLLKKQRESYIVDAQPQQKEEGSKGRKGPFPSILGALY
B13: β-conglycinin β subunit mutant 39335-20 (other)
chain: MDYKDDDDKLKVREDENNPFYLRSSNSFQTLFENQNGRIRLIQRFNKRSPQLENLRDYRIVQIQSKPNTIILPHHADADFIIIILSGRAIITLVNNDDRDSYNIHPGDAIRIPAGTTYYIINPHDHQNLKIIKIAIPVNKPGRYDDFFLSSTQAQQSYLQGFSHNILETSFHSEFEEINRVLLGEEEEQRQQEGVIVELSKEQIRQLSRRAKSSSRKTISSEDEPFNLRSRNPIYSNNFGKIFEITPEKTPQLRDLDIFISSVDINEGALILPHFNSKAIVILVINEGDANIEIVGIKEQQQKQKQEEEPLEVQRYRAELSEDDVFVIPAAYPFVVNATSNLNFLAFGINAENNQRNFLAGEKDNVVRQIERQVQELAFPGSAQDVERLLKKQRESYFVDAQPQQKEEGSKGRKGPFPSILGALY

The values that follow come from US20030200558A1 (MONSANTO, published 2003).

This data set concerns the molecule itself. The data set is described as follows: sucrose gradient sedimentation, anti-FLAG western (self-assembly).
Consider B1, for which the binding result is “no binding”.
The same measure for B2: “no binding”; for B3: “no binding”.
The same measure for B4: “no binding”.
The same measure for B5: “no binding”; for B6: “no binding”; for B7: “no binding”.
For the protein B8, the binding result is on record as “no binding”.
The same measure for B9: “no binding”; for B10: “no binding”.
The same measure for B11: “no binding”.
As for B12, the binding result is on record as “no binding”.
The same measure for B13: “no binding”.
